What was measured:
PTK7 (on HCT116 cells) = target: T1, PTK7 (on HCT116 cells) (UniProt Q13308); experiment: flow cytometry on HCT116 cells; conditions: live cells, PTK7 inferred, HSA beads: DPBS + 5 mM Mg2+, room temperature, 1 h, beads blocked with BSA/yeast tRNA, 4.5 g/L glucose, 5 mM MgCl2, 0.1 mg/ml yeast tRNA, 1 mg/ml …
T1 sequence: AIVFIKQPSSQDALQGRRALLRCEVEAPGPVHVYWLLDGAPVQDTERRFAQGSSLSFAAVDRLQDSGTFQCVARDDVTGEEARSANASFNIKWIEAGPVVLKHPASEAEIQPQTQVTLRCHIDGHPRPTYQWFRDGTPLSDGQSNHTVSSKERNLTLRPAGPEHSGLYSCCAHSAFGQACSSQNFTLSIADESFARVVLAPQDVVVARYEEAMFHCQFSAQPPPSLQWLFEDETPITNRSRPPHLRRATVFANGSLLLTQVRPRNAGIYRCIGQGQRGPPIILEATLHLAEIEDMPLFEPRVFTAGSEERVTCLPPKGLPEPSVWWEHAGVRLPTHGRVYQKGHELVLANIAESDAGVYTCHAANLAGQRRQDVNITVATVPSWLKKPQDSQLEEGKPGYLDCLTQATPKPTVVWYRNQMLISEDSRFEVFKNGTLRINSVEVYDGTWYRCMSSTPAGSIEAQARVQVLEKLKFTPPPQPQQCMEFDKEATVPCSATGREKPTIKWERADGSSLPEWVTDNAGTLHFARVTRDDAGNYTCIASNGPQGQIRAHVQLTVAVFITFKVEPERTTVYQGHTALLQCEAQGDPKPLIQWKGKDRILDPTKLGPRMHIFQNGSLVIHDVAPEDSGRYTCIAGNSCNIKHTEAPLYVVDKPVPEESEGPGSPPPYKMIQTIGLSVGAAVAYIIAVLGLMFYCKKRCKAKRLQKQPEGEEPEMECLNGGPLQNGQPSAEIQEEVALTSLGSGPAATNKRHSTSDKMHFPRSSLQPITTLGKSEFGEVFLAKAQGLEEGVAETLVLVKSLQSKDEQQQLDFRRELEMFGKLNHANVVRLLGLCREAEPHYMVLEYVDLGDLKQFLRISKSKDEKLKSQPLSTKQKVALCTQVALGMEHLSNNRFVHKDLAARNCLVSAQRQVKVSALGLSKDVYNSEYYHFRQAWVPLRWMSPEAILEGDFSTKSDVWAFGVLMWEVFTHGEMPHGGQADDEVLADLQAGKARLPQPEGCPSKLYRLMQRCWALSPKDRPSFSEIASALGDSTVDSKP

[1] = target: human serum albumin (HSA) (Homo sapiens) (UniProt P02768); experiment: flow cytometry on HSA-coated beads; conditions: HSA beads: DPBS + 5 mM Mg2+, room temperature, 1 h, beads blocked with BSA/yeast tRNA, cells: DPBS, 4.5 g/L glucose, 5 mM MgCl2, 0.1 mg/ml yeast tRNA, 1 mg/ml …
[2] = target: human serum albumin (HSA) (Homo sapiens) (UniProt P02768); experiment: flow cytometry; conditions: N = artificial base F; HSA beads: DPBS + 5 mM Mg2+, room temperature, 1 h, beads blocked with BSA/yeast tRNA; cells: DPBS, 4.5 g/L glucose, 5 mM MgCl2, 0.1 mg/ml yeast tRNA, 1 mg/ml …
EpCAM (on HCT116 cells) = target: T2, EpCAM (on HCT116 cells) (UniProt P16422); experiment: flow cytometry on HCT116 cells; conditions: live cells, EpCAM inferred, HSA beads: DPBS + 5 mM Mg2+, room temperature, 1 h, beads blocked with BSA/yeast tRNA, 4.5 g/L glucose, 5 mM MgCl2, 0.1 mg/ml yeast tRNA, 1 mg/ml …
T2 sequence: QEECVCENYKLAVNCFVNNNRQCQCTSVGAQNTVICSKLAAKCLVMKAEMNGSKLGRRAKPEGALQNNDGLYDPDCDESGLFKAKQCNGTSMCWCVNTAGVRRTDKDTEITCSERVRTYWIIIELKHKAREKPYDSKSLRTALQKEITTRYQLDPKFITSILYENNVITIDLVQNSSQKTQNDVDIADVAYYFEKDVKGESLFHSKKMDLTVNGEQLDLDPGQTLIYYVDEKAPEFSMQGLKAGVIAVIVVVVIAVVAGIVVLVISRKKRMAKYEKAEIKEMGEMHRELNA

NNATCTAACTGCTGCGCCGCCGGGANANTANTGTACGGTTAGANN [Sgc8-F23]
Kd (PTK7 (on HCT116 cells); N = artificial base F (3,5-bis(trifluoromethyl)benzene), 7 F): 17.1 nM
Kd ([1]; 5 mM Mg2+, in the SYL3C section printed as 191.8 nM, N = artificial base F (3,5-bis(trifluoromethyl)benzene), 7 F): 194 nM

NNCACTACAGAGGTTGCGTCTGTCCCACGTTGTCATGGGGGGTTGGCCTGNN [SYL3C-F20]
Kd [2]: 1090 nM
Kd (EpCAM (on HCT116 cells); N = artificial base F): 369 nM

CACTACAGAGGTTGCGTCTGTCCCACGTTGTCATGGGGGGTTGGCCTG [SYL3C]
Kd (EpCAM (on HCT116 cells)): 321 nM

ATCTAACTGCTGCGCCGCCGGGAAAATACTGTACGGTTAGA [Sgc8]
Kd (PTK7 (on HCT116 cells)): 3.2 nM

NNATCTAACTGCTGCGCCGCCGGGAAAATACTGTACGGTTAGANN [Sgc8-F20]
Kd ([1]; N = artificial base F): 403 nM
